Consider eight molecules from patent US12018066 (TRIAD NATIONAL SECURITY, dated 2024).

Where a chain is given by its changes, count along the chain named. Several values for one entry are separate records, joined by “and”; a condition that tells them apart may be missing. Equal entries are not always repeated. Where two headings read alike, the source gives them in different places.

Assay [1] concerns the target T1, SARS-CoV-2 spike protein receptor binding domain (RBD2) (SARS-CoV-2, UniProt P0DTC2 319-537).
Assay [2] has as its target T1, SARS-CoV-2 spike protein receptor …. Description: flow cytometry, yeast-displayed scFv.
For assay [3] the target is unchanged. Description: flow cytometry, yeast-displayed scFv, titration of biotinylated antigen. Background: Flow cytometry measures light scatter and fluorescence of single cells or particles in a stream.
In assay [4] the target is T2, human ACE2 receptor on HEK cells (Human ACE2 293 cell line) (human, UniProt Q9BYF1 18-805).
T2 construct: whole, on cells; also called HEK-ACE2; ACE2 293 cells
T2 sequence (Q9BYF1 18-805): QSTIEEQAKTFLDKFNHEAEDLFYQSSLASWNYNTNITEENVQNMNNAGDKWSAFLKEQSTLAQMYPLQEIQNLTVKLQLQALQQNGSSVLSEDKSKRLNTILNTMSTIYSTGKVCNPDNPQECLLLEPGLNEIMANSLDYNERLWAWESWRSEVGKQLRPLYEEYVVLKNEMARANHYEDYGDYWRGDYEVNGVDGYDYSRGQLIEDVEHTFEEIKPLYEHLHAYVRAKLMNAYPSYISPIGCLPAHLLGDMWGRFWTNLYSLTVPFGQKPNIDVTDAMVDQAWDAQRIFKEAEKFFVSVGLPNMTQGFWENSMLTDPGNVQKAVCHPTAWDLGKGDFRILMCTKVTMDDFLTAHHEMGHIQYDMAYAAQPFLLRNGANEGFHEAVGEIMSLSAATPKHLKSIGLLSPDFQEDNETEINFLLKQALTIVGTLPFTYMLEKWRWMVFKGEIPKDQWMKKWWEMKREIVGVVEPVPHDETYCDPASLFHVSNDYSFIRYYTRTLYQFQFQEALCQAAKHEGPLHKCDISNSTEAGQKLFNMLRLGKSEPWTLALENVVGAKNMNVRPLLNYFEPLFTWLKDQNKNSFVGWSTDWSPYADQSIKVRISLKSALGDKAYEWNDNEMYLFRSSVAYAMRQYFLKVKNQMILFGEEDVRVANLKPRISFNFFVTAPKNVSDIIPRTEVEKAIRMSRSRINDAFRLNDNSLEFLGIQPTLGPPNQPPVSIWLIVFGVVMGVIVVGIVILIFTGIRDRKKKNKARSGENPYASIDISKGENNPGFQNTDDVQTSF
The assay is described as follows: fluorescence microscopy, PE-labelled IgG on HEK-ACE2 cells without RBD2-sfGFP.

In assay [5] the target is T1, SARS-CoV-2 spike protein receptor …. Description: SPR sandwich binning, ligand NN54.
The target is the same in assay [6]. The assay is described as follows: SPR sandwich binning, ligand CR3022.
For assay [7] the target is unchanged. Description: SPR, immobilized antibody, RBD injected, 1:1 fit. Background: SPR reads the build-up and loss of mass on a sensor chip optically.
The target is the same in assay [8]. Description: SPR sandwich binning, ligand F07.
Assay [9] shares this target. The assay is described as follows: SPR sandwich binning, ligand E08.
For assay [10] the target is unchanged. Description: SPR sandwich binning, ligand Anti-His.
Assay [11] shares this target. Description: SPR sandwich binning, ligand H01.
The target is the same in assay [12]. Description: SPR sandwich binning, ligand B04.
Assay [13] shares this target. The assay is described as follows: SPR sandwich binning, ligand S01.
Assay [14] shares this target. The assay is described as follows: SPR sandwich binning, ligand E01.
Assay [15] shares this target. The source holds these as a separate data set.
Assay [16] shares this target. Description: SPR sandwich binning, ligand H05.
Assay [17] addresses SARS-CoV-2 spike protein on whole SARS-CoV-2 virus (SARS-CoV-2, UniProt P0DTC2 14-1273). The assay is described as follows: cell-based or functional assay.
The target of assay [18] is T1, SARS-CoV-2 spike protein receptor …. The assay is described as follows: SPR sandwich binning, ligand G07.
The target is the same in assay [19]. The assay is described as follows: SPR.
For assay [20] the target is unchanged. Description: flow cytometry, yeast-expressed scFv.
For assay [21] the target is unchanged. This is another data set of the same source.

B1: S01 scFv (scFv)
scFv: EIVMTQSPSSLSASVGDSVTITCQASQDISNYLNWYQQKPGKAPKLLIYDASNLETGVPSRFSGGGSGTDFTLTITSLQPEDIATYYCQQYDNFPPTFGPGTKVDIKSGGSTITSYNVYYTKLSSSDTQVQLVESGGGLVKPGGSLRLSCAASGFTVGSNYMSWVRQAPGKGLEWVSVIYSGGSTYYADSVKGRFTISRDNSKNTLYLQMNSLRAEDTAVYYCARGSSGAWYFDLWGRGTLVTVSS
notes: also called 501
The term Kd denotes the free concentration of one partner at which half of the binding sites on the other are occupied at equilibrium, for simple one-to-one binding. High values mean lower affinity, low ones higher affinity. Turning to B1, the Kd is 44.8 nM in assay [1], 44.1 nM in assay [2] and 44.1 nM in assay [3].

B2: F07 IgG1 (antibody, V domains shown)
VH: QVQLVQSGAEVKKPGSSVRVSCKVSGYTFTGYYMHWVRQAPGQGLEWMGIINPSGGSTSYAQKFQGRVTMTRDTSTSTVYMELSSLRSEDTAVYYCARVRVGASDAFDIWGQGTMVTVSS
VL: SYVLTQPPSVSVAPGQTARITCGGNNIGSKSVHWYQQKPGQAPVLVVYDDSDRPSGIPERFSGSNSGNTATLIISRVEAGDEADYYCQVWDSSSVHYVFGTGTKLTVL
With B2, the binding result in assay [4] is “no binding (tested: 1 ug/mL)”. Besides, the “normalized analyte binding to RBD2 held by the immobilized ligand” value (“normalized analyte binding to RBD2 held” for short) in [5] was found to be 2.34; in assay [6], 0.9; in assay [8], 0.07; in [9], 1.78; in [10] it was 1.48; in [11], 0.1. For the same molecule, the “normalized analyte binding to RBD2 held” value is -0.05 in [12]; 1.28 in [13]; 1.9 in [14]; 1.39 in assay [16]; 0.14 in [18]. Besides, the equilibrium dissociation constant (Kd) in assay [7], in assay [15] and in assay [19] was 300 nM throughout. In addition, the “NT50 (nM), half neutralization titer” value in assay [17] was 45.2 nM. Besides, the “Nmax (%), neutralization maximum” value in [17] worked out at 74.7%.

B3: H05 IgG1 (antibody, V domains shown)
VH: QVQLVQSGAEVKKPGSSVKVSCKASGGTFSSYAISWVRQAPGQGLEWMGGIIPIFGTANYAQKFQGRVTITADESTSTAYMELSSLRSEDTAVYYCARSIFGVVIISHADGYYYGMDVWGQGTTVTVSS
VL: B2 VL with G24A, S29R, K30I, S66F, I73T, S93Y, V95D, Y97V, V98I, T101G
notes: also called H5; HO5
For the molecule B3, the “normalized analyte binding to RBD2 held” value was -0.15 in assay [6]; 0.9 in assay [8]; -0.12 in assay [9]; 1.35 in assay [10]; -0.1 in assay [11]; 1.75 in [12]. Moreover, the “normalized analyte binding to RBD2 held” value is 1.73 in assay [13], 1.81 in assay [14], -0.17 in [16] and 0.9 in assay [18]. In addition, the Kd in assay [7] is 51 nM; in assay [15], 46 nM; in [19], 51 nM.

B4: R04 scFv (scFv)
scFv: EIVMTQSPSSLSASVGDRVTITCQASQDISNYLNWCQQKPGKAPKLLIYDASNLETGVPSRFSGSGSGTGFTFTISSLQPEDFATYYCQQSYSTPYTFGQGTKVEIKSGGSTITSYNVNYTKLSSSGAQVQLQQSGPGLVKSSQTLSLTCAISGDSVSSNGAAWHWIRQSPSRGLEWLGRTYYRSGWYNDYAVSVKSRITINQDTSKNQFSLQLNSVTPEDTAVYFCAREGGGGRMDVWSQGTTVTVSS
For the molecule B4, the Kd is 293 nM in assay [1]; 293 nM in [2]; 293 nM in [3]; > 280 nM and < 421 nM and 423 nM in assay [20].

B5: R26 scFv (scFv)
scFv: SYELTQPPSVSVAPGQTATITCGGKNIESKSVHWYQQKPGQAPVLVVSDDTDRASGIPERFSGSNSGGAATLTISRVEAGDEADYYCQVWDSPSDHYVFGPGTKLTVLSGGSTITSYNVYYTKLSSSGTQVQLVESGGGVVQPGRSLRLSCAASGFTFSSYAMHWVRQAPGKGLEWVAVISYDGSNKYYADSVKGRFTISRDKAKNTLYLQMNSLRGEDTAVYYCARELSYYDSSGYLRGDWYFDLWGRGTLVTVSS
B5: the dissociation constant (Kd) in [1] and in assay [3] was 65.3 nM in each case.

B6: H05 scFv (scFv)
scFv: SYVLTQPPSVSVAPGQTARITCGANNIGRISVHWYQQKPGQAPVLVVYDDSDRPSGIPERFSGSNFGNTATLTISRVEAGDEADYYCQVWDSYSDHVIFGGGTKLTVLSGGSTITSYNVYYTKLSSSGTQVQLVQSGAEVKKPGSSVKVSCKASGGTFSSYAISWVRQAPGQGLEWMGGIIPIFGTANYAQKFQGRVTITADESTSTAYMELSSLRSEDTAVYYCARSIFGVVIISHADGYYYGMDVWGQGTTVTVSS
notes: also called H5
For the molecule B6, the Kd in [2], in assay [3] and in assay [21] was 16.7 nM each time.

B7: H01 scFv (scFv)
scFv: QPGLTQPPSVSLAPGQTARITCGGNNIGSKSVHWYQQKPGQAPVLVVYDDSDRPSGIPERFSGSNAGNTATLTISRVEAGDEADYYCQVWDSRSDQYVFGTRTKLTVLSGGSTITSYNVYYTKLSSSGAQVTLKESGPVLVKPTETLTLTCTVSGFSLSNARMGVSWIRQPPGKALEWLAHIFSNGEKSYSTSLKSRLTISKDTSKSQVVLTMTNMDPVDTATYYCARTLDYYDSSGYLVGGAFDIWGQGTMVTVSS
notes: also called H1
As for B7, the Kd in [2], in [3] and in assay [21] was 66.4 nM in each case.

B8: G07 scFv (scFv)
scFv: QSVLIQPPSASGTPGQRVTISCSGSNSNFGSNSVSWYQQRPGTAPKLLIEGNNQRPSGVPERFSGSKSGTSASLAISGLQSEDEAEYSCASWDDSLNAFVFGPGTKLTVLSGGSAITSYNVYYTKLSSSGTQVQLVQSGAEVKKPGESLKISCKGSGYSFTSYWIGWVRQMPGKGLEWMGIIYPGDSDIRYSPSFQGQVTISADKSFSSAYLQWSSLKASDTAMYYCARLGATGAFDIWGQGTTVTVSS
B8: the Kd is 60.3 nM in assay [2], 60.3 nM in assay [3] and 60.4 nM in assay [21].
